For 2 molecules, EC50 results are on record in patent publication US20230053258A1 (RAMOT AT TEL AVIV UNIVERSITY, published 2023).

In the experiment the target is T1, recombinant human wild type insulin degrading enzyme (WT rhIDE) (human, UniProt P14735 42-1019).
T1 construct: also called WT IDE; active IDE
Nature of the experiment: ELISA on coated WT rhIDE.

Method: Following 3 washes with PBST, 3,3′,5,5′-tetramethylbenzidine (TMB; eBioscience, San Diego, Calif., USA) was added until color appeared. The reaction was stopped by adding 1 M H₂SO₄, and analyzed using a Spectrafluor plus microplate reader at 450 nm.

B1: B1 Inclonal IgG (human IgG1) (antibody, V domains shown)
VH: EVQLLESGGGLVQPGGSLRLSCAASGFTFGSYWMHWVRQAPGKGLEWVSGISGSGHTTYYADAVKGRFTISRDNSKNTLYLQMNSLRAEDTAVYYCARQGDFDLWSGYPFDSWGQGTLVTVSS
VL: DIVLTQSPGTLSLSPGERATLSCRASQSVSSHLAWYQQKPGQAPRLLIYDASNRATGIPDRFSGSGSGTDFTLTISRLEPEDFAVYYCQQYDSYPYTFGQGTKLDIK
notes: also called B1 IgG
In the case of B1, the EC50 (as a rule, the midpoint of the concentration-response curve) was roughly 1 nM.

B2: A9 Inclonal IgG (human IgG1) (antibody, V domains shown)
VH: EVQLLESGGGLVQPGGSLRLSCAASGFTFRSYGMHWVRQAPGRGLEWVSAINSNGDSTYYPDTVKDRFTISRDNSKNTLYLQMNSLRAEDTAVYYCARADYYDSTGYYYHGLDLWGQGTLVTVSS
VL: DIVLTQPPSASGTPGQRVTISCSGSRDNIGKNYVSWYQQLPGTAPKLLIYRNNQRPSGVPDRFSGSKSGTSASLAISGLRSEDEADYYCSSYAGSSVIFGGGTKVTVL
notes: also called A9 IgG; IgG A9
Regarding B2, the half-maximal effective concentration (EC50) is roughly 1 nM.
